# According to article doi:10.1101/243402v1:
# Substrate: O=P(O)(O)OC[C@@H](O)[C@@H](O)[C@H](O)[C@H](O)CO
# Experiment: purified protein
# Settings: 100 mM Tris-HCl
protein,measurement,value
SjaM1Pase2 (Saccharina japonica) (protein) MEQATANKDISILFDFDGTIGDTETPAMEVAFWELAPYLPDTTPDKLDNLMPEFVRDNAGKAFEFMVETVDEERKAAGMDSVEEMFAAKSEPQNMLDAVDPHRKKFGLKSFAELRAPEGGEAATLLIQQKTETVDALSKIAQPCNGVREVLAALTAATVPFCISTTSPKPRVPASITACGLDEYFPPDKVHSGESDFDPPRFKPNPSVYLKAAETEGKEPVNCIAVEDSGSGVGSASNAGVGLTVGYVGASHIPEYKKDTHAEMLMAGGRAENGKGAEIVISDMKDLLKIIDFFAGAKTAGKLAPFDFPTAMVASMQQPVWVHGKKA,Km,20 µM
